Consider 69 sequences from the domain aggregation screens of Martell et al. (2025).

The nature of the data set: soluble fraction after stress (log2 fold change); higher = more stays soluble; pooled small domains, quantitative proteomics. The note with it: stress: pH 4. The procedure, abridged:
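Aggregation propensity here comes from the fold change in the soluble amount of each small protein domain after acid stress, measured in pooled custom libraries by high-throughput quantitative proteomics. The acid stress was pH 4. On the log2 scale, higher values mean more of the domain stayed soluble.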
For “HMIPSLTITVNEHSRQITRGTSLYTLRDALYPDADVLVVNGHPADSDRHLEEGDAVVLIRRGA”, the “soluble fraction (log2)” value is -0.394.

In the case of “HMIQIQDIAFSEFLQELDKGNIVEVNIKGDLINGDLINGKKFKTVAPYDPNLVEKLSKQNVRINVEPIN”, the “soluble fraction (log2)” value is -0.0277.

On to “HMIQLKEHDVVRLRETIVENDEKIPAGTRGVVLSVYDGGRAFAVEVADDRAASAIITAFRDQLEVY”, for which the “soluble fraction (log2)” value is -0.0481.

In the case of “HMIQNTGMMESGDSIRGMALDAGFPLLMVVGYRGWTRKGNTPDSAAVYTEPFLNAFRLNYYLVEHDE”, the “soluble fraction (log2)” value is -0.0253.

With “HMIQVNKTQALIIEEMRDNPNITLLELQKTLSLGRTAIQNNVSSLRKRQIIKRVGSNKNGYWEVTDK”, the “soluble fraction (log2)” value amounted to 0.22.

For the sequence “HMIRQETYLLVRKAVGALPVQMRKIIELAMQGKKNAEIAAQLSISEGTVHTLKKTAYKKLRDRLQE”, the “soluble fraction (log2)” value is -0.32.

With “HMIRQGTKQALLIEMLQRPEGASITEIVEATSWQAHTARGAISGALKKKLGLPITSEKHPERGTVYKL”, the “soluble fraction (log2)” value was -0.55.

On to “HMISAQEQALRNLKLSNGMTWKALAKALGITERSILSYVAAPGTKGYREMPAEVWHKLENISGH”, for which the “soluble fraction (log2)” value came out at 0.143.

Consider “HMISDAEWTIMKALWQSEDKKMTLKEIAEAVADSGWSYTTVRTMVGRLVEKEAIEADESHPRNFRYSAA”, for which the “soluble fraction (log2)” value was -1.4.

For the sequence “HMISEGDIIKGTVIDVNEEEVILDLKYYAQGVIKAENLSNDPDFLAAGKISVGDEIEATVIKMDDGEGNIE”, the “soluble fraction (log2)” value is -0.496.

Regarding “HMISESIPAKDALLRLLNTAYQTRTNAAGEFYFNDVPPGKYILQASVNDVEIIRENISINEN”, the “soluble fraction (log2)” value is -0.433.

For the sequence “HMISEWDAAYSYAKQYYEENGHLFVPKKYVTSEGAALGKWIWEQRDSYLGLSSYKISDKKIEMLEDIGMFW”, the “soluble fraction (log2)” value was -2.73.

Regarding “HMISINVIGEMISGSYGNTPFSRTYEKDIYEQMVKLSDDADQAQTVEEYNKILAEFSLLTTEDLK”, the “soluble fraction (log2)” value is -1.73.

Regarding “HMISKWGELVDLAVQLDIIQKSGSWFSMGDERIGQGANSVKDYLIANPDIAEKVEAEVRENLWKLN”, the “soluble fraction (log2)” value is -0.351.

On to “HMISKYLRIESDILSAIREGRLKPGDKLPGQSEMRRIYNVSAITVRKAFTDLINDGYLVGVRGSGTYVAKR”, for which the “soluble fraction (log2)” value was 0.117.

As for “HMISQATMEKMGLTNRERQLVDFIVRGASNQEISEKMFISINTVKIHVSNIFRKAGVRSRTELMDKYP”, the “soluble fraction (log2)” value was -0.693.

As to “HMISSKDIINDEDGARLGKIADVEIDVATGKILSVHVYRSFKLLHLFGNKDVVQIPWNKIMKIGSDVVIVE”, the “soluble fraction (log2)” value was -0.198.

As to “HMISVENLSNREFEIFQLIGNGFSTKEMAKKLNLSIYTVESHKKNIKEKLKLKNSSDLSKYAIQWVIMQN”, the “soluble fraction (log2)” value is -1.35.

As to “HMITANNYFNEVERIGVETLPETLRKGHDLVVRSTNSGTNWSNYQNNESIRKVIDLYLQKLNEYVSTST”, the “soluble fraction (log2)” value was -0.676.

Turning to “HMITGSIQPKNGKYYAVLNLYDHTGKRRPKWVSTGYTVKGNKKKAQEVLNELTRRYSAQLPPSK”, the “soluble fraction (log2)” value was found to be 0.22.

In the case of “HMITLPDFVGKDVETVKAWAKENGITLIVNKVEDSAKKDTVISQTPTTYDYSKIMKGSSFTVNVAKE”, the “soluble fraction (log2)” value is 0.0768.

In the case of “HMITNLEPFKDFVRGFSGLHLEGVGQEKLAAALDERIRKTGSANERDYLQLIMEDVAERLKLINILT”, the “soluble fraction (log2)” value is -1.17.

On to “HMITPAARLRALKIRLSVDEVAQIVQRLVNGETVYQIGKPDTGGHAKATVGKINALRLAGQLHFL”, for which the “soluble fraction (log2)” value was -0.259.

For the sequence “HMITTLLVENLQDVGMRLDHYLVYNLIKYSRSHIQSFIRSGDIRVNGKKVKTGYSLELKDLIHIEMP”, the “soluble fraction (log2)” value is -1.1.

With “HMITVPKVINMSETQARQTLDALGLNVTLSATQVMNDKIPYGYVAAQSYSAGKEVPAGTTIELTMSIGL”, the “soluble fraction (log2)” value came out at 0.0236.

As to “HMIVDYPSFVGKTKQELEKWAKENNIIIRYRQLSVTASDKVKAQLPATTTYKRIMKGSSIEVELEL”, the “soluble fraction (log2)” value was -0.749.

With “HMIVIMKAKAEEEDVNRVIDTIQSLGLRTQLNLGAERMVVAVIGDISKIGEDNFFRIRAMKGVENTVFVSK”, the “soluble fraction (log2)” value was -0.811.

Regarding “HMIVMPELRGKDLKEAERLLSSHNLRYELVDSVYDKSLAPGVVVEMVPQSGNTVKPGRIIFLSINA”, the “soluble fraction (log2)” value is -0.272.

In the case of “HMIVNTTRAPYLLGETEQDAMRLARQAGLVPEIVRQSSAEPAGTVILQSHDFDYRMRRGSVILITVSTGPL”, the “soluble fraction (log2)” value was 0.22.

Turning to “HMIVPPAIPFRALGIFGPRDRPIVTFEDGPRLINAREGDVLDGRFILRRVGRESVDFAFVGLPPEITRRIP”, the “soluble fraction (log2)” value was -0.608.

“HMIVSEYIIIGGDKKEYGPVSMGEVGEWVQGGRANGDSKIKKVGTEEWGRLRDFPEFSAYLS”: the “soluble fraction (log2)” value was -0.309.

Turning to “HMIVVMARETSTDDLEAIRERIESRGMVAQINLGVERTVIGVMGSIPPDFKDEMELMNGVVEVVMISK”, the “soluble fraction (log2)” value was -1.64.

For the sequence “HMIVVMKTSASERDLQEVIARIEQFGFATRSIVGSERATVSVLGAPLPDSLQEALERMPGVEEVVRITK”, the “soluble fraction (log2)” value was -0.0559.

As for “HMIYAEDFVGRQGTANTILRPSGRIEIEGEVYDAYTRGEYVEAGERVVVISQEGSTLKVRVV”, the “soluble fraction (log2)” value is -1.36.

“HMIYQEGMQVKYQGKEYVISEIQDYKTYKTIKLDDNEGYLNGFITGSEILSFRNESELDLEI”: the “soluble fraction (log2)” value was -0.785.

Regarding “HMIYSKSDLELFGIKKIDVMEENILMLILSEYELDQTPKNILIDEAVRLSKKFGADNAYKFVNATLDTLL”, the “soluble fraction (log2)” value is -1.51.

With “HMKAETILAIPENQPERLFPNNEDEARKIYRDLAREWHTDRNKSPKAQDVFSHLSKLYDIVIDRIKNKTWT”, the “soluble fraction (log2)” value is -0.0463.

Take “HMKAGRNTLARQMAILEVLQKDGRALVDDLAARFETTPQTIRKDLSALAEVNQISRFHGGAALVG”: the “soluble fraction (log2)” value was -0.279.

As to “HMKAKTYTVQYIDEGKIIKEEELEEGSIINAPEVTKEGHTFIGWYEGEEKYDVYEPITRNLILESKNEIN”, the “soluble fraction (log2)” value is -0.989.

Regarding “HMKALEGMRTVFTLADLATEPVTVEITVLEAFKYTTTLEIVQRPVLREWMTNPSMLIRVYHDASTAE”, the “soluble fraction (log2)” value is -0.138.

With “HMKAMIIVMKPGADMATISKVLKTIETNGFKPHLSKGEETTVIGVIGDERKLNPDIFSTLEGVERIVPVA”, the “soluble fraction (log2)” value is 0.279.

As to “HMKASTRELLDFVLSQRGVSTASVAKALGISVQNASTRLKKLSNEGLIIRSEASSLTGGIEFLYS”, the “soluble fraction (log2)” value was 0.0289.

On to “HMKDASEFLGAKGKTITPLRPTGAAVINGEKVDVLAEGEFIPKNAEIVVIKVEGSKIIVRNANN”, for which the “soluble fraction (log2)” value is -0.0474.

As for “HMKDDLTWSEGLMPNVVGMGLRDAMFMLENSGLRVNYSGRGKVTRQSPQPGVRIKRGATVAIELRL”, the “soluble fraction (log2)” value is 0.0273.

Regarding “HMKDEHYLYIKARVDNGDYPHLSELKSAEEIELVMPKLLQDGIVEFNKETGEYTIGEDVKAEIERL”, the “soluble fraction (log2)” value was -1.02.

For “HMKDESYALGTRLLSHALGKTKLEDLAQEKIDEVVQQSGNKTLEQLLTNIGLGNALSIGIARQLT”, the “soluble fraction (log2)” value is at least 0.43.

For the sequence “HMKDGAKYFQLFGLLKNEINRGIYQSGQKIPGENELAEKYGMSRQTVRQALSLLEQESLIERRQGSGTYVR”, the “soluble fraction (log2)” value was 0.185.

Regarding “HMKDGMRVYITYHDSEEEPEKPIGDGTTKGWHTNSTASVVWISQKVAESADLGIWGDPIRIKGEA”, the “soluble fraction (log2)” value is -0.217.

Regarding “HMKDIIVDPQGQYNHPGVPTRIPSSDITMKGVGYPVLGIADNGQKQMMQPGQDYKFPGAKYVDEYPQM”, the “soluble fraction (log2)” value is 0.0501.

Turning to “HMKDIIVLGAIQAGIKKFDKIQKMTQIEPEELNSILEQLENRGFIQVAEKSGLLGKKIEILVTEKGSNEVD”, the “soluble fraction (log2)” value is -0.484.

Regarding “HMKDITAVISKKKGRDYYYIIVSYHLSNGKRVQKWIKTEFSVNGNNKRKLEQKRIEILQEWQNKLV”, the “soluble fraction (log2)” value is -0.0977.

As for “HMKDITMPNVYGLTLEMAEQTLKQSELSIFKAMKINSDTVEEGKVIYTDPKANSIVSGDQEITIYVSDGP”, the “soluble fraction (log2)” value is 0.22.

On to “HMKDKSEKTKKLIFEAAFKIIREEGFSELSANKIAQVASVSKGVIFHHFSQMDDLYLFMLDTL”, for which the “soluble fraction (log2)” value is 0.192.

For the sequence “HMKDLTAIKGVGEFFAKKLSQAGYQSITNLTDVNAKRLQADTGIPLPIAARIIKEAQSLIAET”, the “soluble fraction (log2)” value is -0.00834.

Regarding “HMKDMWNRIRRARLSAGLSQAALAKETGVRRSAVTQWEKEGGTSPSVANLARIAVVTQVHFEWLATGRGPG”, the “soluble fraction (log2)” value was -0.216.

“HMKDNIRSILEDIPNIGPGRRRALLKHFGSIEAIRRASLEDLIKVDGMNRNAALSIMEYFGM”: the “soluble fraction (log2)” value was -0.24.

Take “HMKDPSLEHIDALAGKPFQAFPGQDHRAHITAHLNFMSTNMVRNNPSIMAAIQKNILEHISLMAQEQIQL”: the “soluble fraction (log2)” value was -0.683.

For “HMKEETYHYTVRYVTDGGDILASYEGKATKDSVFFPEVKTFDGYTAVRGEEPMFHLVSDHAVFQIVYQKNG”, the “soluble fraction (log2)” value amounted to 0.204.

Turning to “HMKEFEINSQWKPSLEVYDILSVKGGISRNFIEDSIPEFVLYWRGRGDKSNTWDSKFVQHVKRQWNFYSGL”, the “soluble fraction (log2)” value is -2.41.

As for “HMKEGGREEMSEIVERYGDERALMANITSVQNLMNNMKWTLDQALDALGIKGKERTLITQQLQ”, the “soluble fraction (log2)” value is -0.145.

Consider “HMKEIATKSELTYFIQRLLDLLEETNFFNPEERKKAMINHIEAIFRRNNLTLQELNMLHGIITSITR”, for which the “soluble fraction (log2)” value is -1.38.

On to “HMKEIGGGPASKFIYYLIKTKHPIEQGDLIGITHLPRRTVQSAIEDLKNQGFIIERNSLDDSRRKVYYPVK”, for which the “soluble fraction (log2)” value was found to be 0.22.

With “HMKEIKRLVELSPGRYFIEGATNIRVFGINGSLLLDTKGETVDLSDLAKGVYLLKTDGVTYKVL”, the “soluble fraction (log2)” value is -0.216.

With “HMKEIYIDRGKEALEKELRKRKIPFQEFLSKENTNLLFDTLKIPSHDLEELYLEIGNGKHAASTVVNTVY”, the “soluble fraction (log2)” value is -0.0339.

Regarding “HMKEKQLMTLDDDLYAFLLKHPGIIQKDIYNHFPYDIKGVIADTLYAWDKTGKIKRTKSGNSYIIYT”, the “soluble fraction (log2)” value is -0.141.

As to “HMKELAADFSRRIINARTSKGWSQADLGQRMAETINVIKSAESGKPPTDAVVKKFETVLGVILM”, the “soluble fraction (log2)” value came to 0.22.

“HMKELLDRIFLHETMRRVSQDATITFSKKVYEVPQKFIGRQVTVQYDPEDLSRVYVKDLNFPEPVMVYPVQ”: the “soluble fraction (log2)” value turned out to be 0.0825.

Turning to “HMKELTPEQLQHNWNNLRQFIDVNFSGDRLGGLNKMYDYFEERMMFAPASGKQHYHNAFAGGYVEHVMHV”, the “soluble fraction (log2)” value is 0.0505.

As to “HMKEPGFAPPVRALAAAPITVLAQVAGTNPGEIRARLRAAGYPVASDQQSVQSLVGGDLKAQIGVLNRILA”, the “soluble fraction (log2)” value is -0.0568.
